# Assay results: US20250340630A1 (SICHUAN KELUN BIOTECH BIOPHARMACEUTICAL, published 2025)
# Where a chain is given by its changes, count along the chain named.
# B1: mouse antibody 19G10.14 (antibody, V domains shown)
# VH: QVQLKESGPGLVAPSQSLSITCTVSGFSFTSYGVHWVRQPPGKGLEWLGVIWAGGSTDYNAALMSRLSIRKDNSKSQVFLKMNSLQIADTAMYYCARDGHGKVGFDVWGAGTTVTVSS
# VL: DIVMTQSPSSLSVSAGEKVTMNCKSSQSLLNSGNQKNYLAWYQQKPGQPPKLLIYGASTRESGVPDRFTGGGSGTDFTLTISSVQAEDLAIYYCQNDHFYPFTFGSGTKLEIK
# notes: Purified from hybridoma
# B2: mouse antibody 9C8.1 (antibody, V domains shown)
# VH: QVQLQQSGAELVRPGSSVKISCKASGYAFSNYWMNWVKQRPGQGLEWIGQIYPGDGDTNYNGKFKGKATLTTDKSSSTAYMQLSSLTSEDSAVYFCARLYYGNSFAYWGQGTLVTVSS
# VL: B1 VL with S12T, S14T, M21V, N22S, A40T, G56W, G71S, E87A, H98Y, S106G
# notes: Purified from hybridoma
# B3: mouse antibody 6B9.22 (antibody, V domains shown)
# VH: QVQLQQSGAELVKPGASVKMSCKAFGYTFTSYPIEWMKQNHGKSLEWIGNFHPYNDDTKYNEKFKGKAKLTVEKSSSTVYLELSRLTSDDSAVYYCARTYYGNSFAYWGQGTLVTVSS
# VL: DIVMTQSPSSLTVTAGEKVTMSCKSSQSLLNSGNQKNYLTWYQQKPGQPPKLLIYWASSRDSGVPHRFTGSGSGTDFTLTISSVQAEDLAFYYCQNDYFYPFTFGAGTKLELK
# notes: Purified from hybridoma
# B4: mouse antibody 1E9.2 (antibody, V domains shown)
# VH: EVMLVESGGGLVKPGGSLKLSCAASGFSFSNSAMSWVRQTPEKRLEGVATISSGDSYTYYPDSVKGRFTISRDNAKNSLYLQMSSLRSEDTAVYYCARQGYGNALDYWGQGTSVTVSS
# VL: B3 VL with A57S, S59T, D61E, H66D, F91V, F99Y, F102L
# notes: Purified from hybridoma
# B5: mouse antibody 19H11.6 (antibody, V domains shown)
# VH: B4 VH with Y57F, S63T, S85R
# VL: B3 VL with S22T, A57S, S59T, D61E, H66D, F91V, F99Y, F102L
# notes: Purified from hybridoma
# B6: mouse antibody 16A9.11 (antibody, V domains shown)
# VH: B4 VH with N74T, A97T, L105M
# VL: B3 VL with A57S, S59T, D61E, H66D, F91V, F99Y, F102L
# notes: Purified from hybridoma
# B7: humanized antibody 1E9.2-hz12 (antibody, human IgG1, kappa, V domains shown)
# VH: EVQLVESGGGLVKPGGSLRLSCAASGFSFSNSAMSWVRQAPGKGLEWVSTISSGDSYTYYADSVKGRFTISRDNAKNSLYLQMNSLRAEDTAVYYCARQGYGNALDYWGQGTLVTVSS
# VL: DIVMTQSPDSLAVSLGERATINCKSSQSLLQSGNQKNYLTWYQQKPGQPPKLLIYWSSTRESGVPDRFSGSGSGTDFTLTISSLQAEDFAVYYCQNDYYYPLTFGGGTKVEIKR
# notes: Human IgG1 / kappa constant regions
# B8: humanized antibody 1E9.2-hz15 (antibody, human IgG1, kappa, V domains shown)
# VH: B7 VH
# VL: DIVMTQTPLSLPVTPGEPASISCKSSQSLLNSGNQKNYLTWYLQKPGQSPQLLIYWSSTRESGVPDRFSGSGSGTDFTLKISRVEAEDFGVYYCQNDYYYPLTFGGGTKVEIKR
# notes: as for B7
# B9: humanized antibody 1E9.2-hz13 (antibody, human IgG1, kappa, V domains shown)
# VH: B7 VH
# VL: B7 VL with F89V
# notes: as for B7
# B10: humanized antibody 1E9.2-hz14 (antibody, human IgG1, kappa, V domains shown)
# VH: B7 VH
# VL: B7 VL with Q35N
# notes: as for B7
# B11: humanized antibody 1E9.2-hz17 (antibody, human IgG1, kappa, V domains shown)
# VH: B7 VH
# VL: B8 VL with N31Q, Q35G
# notes: as for B7
# B12: humanized antibody 1E9.2-hz41 (antibody, human IgG1, kappa, V domains shown)
# VH: B7 VH with W47G, S49A, A61P
# VL: B7 VL with Q31N
# notes: as for B7
# B13: chimeric antibody 1E9.2-hz00 (antibody, human IgG1, kappa, V domains shown)
# VH: B4 VH
# VL: DIVMTQSPSSLTVTAGEKVTMSCKSSQSLLNSGNQKNYLTWYQQKPGQPPKLLIYWSSTRESGVPDRFTGSGSGTDFTLTISSVQAEDLAVYYCQNDYYYPLTFGAGTKLELKR
# notes: Mouse variable regions on human IgG1 / kappa constant regions; expressed in Expi293F; also called 1E9.2 chimeric antibody
# B14: chimeric antibody 9C8.1-hz00 (antibody, human IgG1, kappa, V domains shown)
# VH: B2 VH
# VL: B13 VL with M21V, S57A, E87A, V91I, Y99F, L102F, A106G, L112I
# notes: Mouse variable regions on human IgG1 / kappa constant regions; expressed in Expi293F
# B15: chimeric antibody 6B9.22-hz00 (antibody, human IgG1, kappa, V domains shown)
# VH: B3 VH
# VL: B13 VL with S57A, T59S, E61D, D66H, V91F, Y99F, L102F
# notes: as for B14
# B16: chimeric antibody 16A9.11-hz00 (antibody, human IgG1, kappa, V domains shown)
# VH: B4 VH with N74T, A97T, L105M
# VL: B13 VL
# notes: as for B14
# B17: chimeric antibody 19H11.6-hz00 (antibody, human IgG1, kappa, V domains shown)
# VH: B4 VH with Y57F, S63T, S85R
# VL: B13 VL with S22T
# notes: as for B14
# B18: humanized antibody 1E9.2-hz31 (antibody, human IgG1, kappa, V domains shown)
# VH: B7 VH with W47G, S49A
# VL: B7 VL with Q31N
# notes: as for B7
# B19: humanized antibody 1E9.2-hz21 (antibody, human IgG1, kappa, V domains shown)
# VH: B7 VH with W47G
# VL: B7 VL with Q31N
# notes: as for B7
# Target: T1, human Claudin18.1 (human, UniProt P56856 1-261)
# T1 construct: whole, on cells; Presented on transfected cells; also called CLDN18.1
# Experiment: FACS titration on Ba/F3-Claudin 18.1 cells
# Method: (§1) The affinity of the candidates to Claudin18.2 was measured using FACS. […] Ba/F3-Claudin18.1 and Ba/F3-Claudin18.2 cells were incubated with the purified mouse antibodies at various concentrations on ice for 30 min and mouse IgG was used as negative control (Thermo Fisher, Cat: 31903), followed by washing with FACS buffer (PBS+2% FBS) twice.
row,binding result,Binder
1,no binding (tested: about 50 nM),B1
2,no binding (tested: about 50 nM),B2
3,no binding (tested: about 50 nM),B3
4,no binding (tested: about 50 nM),B4
5,no binding (tested: about 50 nM),B5
6,no binding (tested: about 50 nM),B6

# Target: T2, human Claudin18.2 (human, UniProt P56856-2 1-261)
# Experiment: cell-based or functional assay
"ADCC EC50, Ba/F3-Claudin18.2 target cells, NK-92MI_mCD16 effectors",Binder,"ADCC Max killing rate %, Ba/F3-Claudin18.2 target cells"
0.091 µg/mL,B7,64.4%
0.08 µg/mL,B8,66.2%
0.068 µg/mL,B9,63.8%
0.097 µg/mL,B10,60.5%
0.113 µg/mL,B11,59.6%
0.048 µg/mL,B12,55.4%
0.049 µg/mL,B13,59.8%

# Target: T2, human Claudin18.2
# Experiment: flow cytometry on Ba/F3-Claudin18.2 cells, chimeric antibody
# Method: The affinity of the anti-Claudin18.2 chimeric antibodies to Ba/F3-Claudin18.2 cells were determined. […] The cells were then analyzed by FACS.
EC50,Max MFI,Binder
11 nM,1.18e+07 MFI,B13
23.9 nM,1.44e+07 MFI,B14
18.2 nM,1.67e+07 MFI,B15
10.5 nM,1.24e+07 MFI,B16
11.6 nM,1.3e+07 MFI,B17

# Target: T2, human Claudin18.2
# Experiment: flow cytometry (IntelliCyt) on Ba/F3-Claudin18.2 cells
# From the text: In order to evaluate the anti-Claudin18.2 humanized antibodies, codon optimized cDNAs of the heavy chains and the light chains of the candidate humanized antibodies from Example 6 were synthesized and ligated into pcDNA3.4 (by Nanjing Genscript Biotech Corporation). Expi293F cells (purchased from Thermo Incorporation) were co-transfected with pcDNA3.4 coding the heavy chain and light chain of each antibody. The antibodies were purified from the supernatant using protein A (MabSelect SuRe, GE). The affinity of the humanized antibodies to Claudin18.2 was determined using Ba/F3-Claudin18.2 cells which over-expressed human Claudin18.2. Ba/F3-Claudin18.2 cells (60000 in 10 ul buffer) were incubated with purified humanized antibodies on ice for 30 min, followed by washing with buffer (PBS+2% FBS) twice and addition of Alexa647-labeled goat-anti-human IgG Fc antibody (1:500 dilution). The cells were incubated on ice for another 30 min and analyzed by IntelliCyt.
row,Max MFI,Binder
1,8.99e+06 MFI,B8
2,1.06e+07 MFI,B18
3,1.46e+07 MFI,B19
4,5.9e+06 MFI,B11
5,1.13e+07 MFI,B12
6,1.12e+07 MFI,B13

# Target: T2, human Claudin18.2
# Experiment: flow cytometry on Ba/F3-Claudin18.2 cells, purified mouse antibody
# Method: as §1
EC50,Max MFI,Binder
16.3 nM,3.5e+06 MFI,B1
9.4 nM,4.97e+06 MFI,B2
3.64 nM,3.62e+06 MFI,B3
8.51 nM,5.08e+06 MFI,B4
10.9 nM,6.01e+06 MFI,B5
10.2 nM,5.82e+06 MFI,B6
